Assay results taken from PMC2791445, “A Novel Phase Variation Mechanism in the Meningococcus Driven by a Ligand-Responsive Repressor and Differential Spacing of Distal Promoter Elements” (PLoS Pathogens, 2009).

Target: the molecule itself
Assay: cross-linking; in vitro cross-linking of purified NadR, cross-linked species resolved on SDS-PAGE; data not shown

B1: NadR transcriptional regulator protein (NMB1843) of Neisseria meningitidis MC58, recombinant with an N-terminal histidine tag (natural protein)
chain: MPTQSKHASINIGLIQAREALMTQFRPILNQANITDQQWRIIRLLAENGTLDFQDLANQACILRPSLTGILTRLEKAGLVVRLKPSNDQRRVFLKLTAEGEKLYEEIGEEVDERYDAIEEVLGREKMLLLKDLLAELAKIEDALNS
notes: NadR (NMB1843), MarR family transcriptional regulator, N. meningitidis MC58; gene amplified from the MC58 genome with primers 1843-F (at the ATG) and 1843-R (past the stop codon), cloned as a 448 bp NdeI-BamHI fragment into pET15b; also called 1843 protein
For B1, the “stoichiometry N” value was 2.
